Columns and labels:
[1] = molecular target: canonical S. cerevisiae nucleosome (two H2A–H2B dimers) on Widom 601 DNA (S. cerevisiae) (UniProt P04911); assay: single-molecule fluorescence colocalisation; surface-immobilised 113N2.AF488 nucleosome; 5 nM SWR1(647N) with 1 mM ATP injected; 25 mM Tris-HCl pH 7.8, 100 mM KCl, 4% glycerol, 1 mM EDTA, 2 mM MgCl2, 0.2 mg/ml BSA; 22 °C; time to bind and bound lifetime from tMAVEN
[2] = molecular target: heterotypic S. cerevisiae nucleosome (one Htz1–H2B dimer and one H2A–H2B dimer) (S. cerevisiae) (UniProt P04911); assay: FRET or BRET; single-molecule FRET (prism-TIRF); biotinylated nucleosome or hexasome with Cy3 on the 2-bp DNA overhang immobilised via neutravidin; 10 nM SWR1(647N) injected; 25 mM Tris-HCl pH 7.8, 100 mM KCl, 4% glycerol, 1 mM EDTA, 2 mM MgCl2, 0.2 mg/ml BSA; room temperature; 100-ms frames

## SWR1(Atto647N–Arp6) (from UniProt Q05471 1-1514; Q12509 1-438; Q03433 1-280; Q03388 1-795; Q03940 1-463; Q12464 1-471; P38326 1-303) (complex)
[1]
  lifetime of the bound complex (stably bound species): 19 min
  time to bind: 6.58 min
[2]
  dwell time on the Htz1–H2B face (single fast exponential decay): 0.63 s

Source: publication PMC11618073
